# Measurements reported in patent US20150322128A1 (Sanofi, published 2015).
# Where two headings read alike, the source gives them in different places. Numbered stars: 1 amine (or outer) side, 2 acyl side, 3 side chain; on linkers, the order of the positions; unused ones are H or OH. Square brackets hold non-standard residues; d marks the D form. Side chains are listed from the residue outwards. Ends that are not written are not given here. * marks the point of attachment. γGlu = O=C(O)[C@H](CCC(=O)[*:2])N[*:1]; Palmitoyl = CCCCCCCCCCCCCCCC(=O)*; Aib = CC(C)(N)C(=O)O
# T1: human GIP receptor (human, UniProt P48546 22-466)
# T1 sequence (looked up): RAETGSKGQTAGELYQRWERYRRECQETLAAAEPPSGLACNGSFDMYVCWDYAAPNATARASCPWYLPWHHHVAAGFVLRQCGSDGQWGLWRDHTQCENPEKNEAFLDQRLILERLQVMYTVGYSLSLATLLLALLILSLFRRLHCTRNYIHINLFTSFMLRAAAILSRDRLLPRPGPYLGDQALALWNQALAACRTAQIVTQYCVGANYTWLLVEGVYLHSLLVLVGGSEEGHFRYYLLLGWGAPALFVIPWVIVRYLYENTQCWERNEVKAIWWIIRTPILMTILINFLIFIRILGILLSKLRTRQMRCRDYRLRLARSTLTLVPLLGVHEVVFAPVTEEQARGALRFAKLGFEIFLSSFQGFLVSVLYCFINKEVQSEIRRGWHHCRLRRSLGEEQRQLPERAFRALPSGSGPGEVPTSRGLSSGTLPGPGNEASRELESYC
# Key:
# Assay in all cases: cell-based or functional assay
# [1] = target: T2, human GLP-1 receptor (human, UniProt P43220 24-463)
# [2] = target: T1, human GIP receptor
# [3] = target: T3, human glucagon receptor (human, UniProt P47871 26-477)
# T3 sequence (P47871 26-477): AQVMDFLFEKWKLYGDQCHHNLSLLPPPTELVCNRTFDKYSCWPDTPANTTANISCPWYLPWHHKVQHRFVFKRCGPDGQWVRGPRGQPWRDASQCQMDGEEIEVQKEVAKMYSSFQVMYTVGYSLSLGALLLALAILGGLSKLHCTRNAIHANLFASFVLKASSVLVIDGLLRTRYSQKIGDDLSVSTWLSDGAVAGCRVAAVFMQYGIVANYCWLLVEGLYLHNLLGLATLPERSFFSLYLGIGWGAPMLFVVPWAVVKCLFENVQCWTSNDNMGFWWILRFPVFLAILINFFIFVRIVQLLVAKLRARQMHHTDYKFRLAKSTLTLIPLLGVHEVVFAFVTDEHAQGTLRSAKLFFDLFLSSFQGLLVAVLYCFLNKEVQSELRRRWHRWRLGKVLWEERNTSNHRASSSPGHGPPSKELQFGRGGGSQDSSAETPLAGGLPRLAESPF
# [4] = target: T2, human GLP-1 receptor; remark: listed apart in the source
# [5] = target: T1, human GIP receptor; remark: listed apart in the source
# [6] = target: T3, human glucagon receptor; remark: listed apart in the source
# [7] = target: T2, human GLP-1 receptor; remark: listed apart in the source
# [8] = target: T1, human GIP receptor; remark: listed apart in the source
# [9] = target: T3, human glucagon receptor; remark: listed apart in the source
Binder,EC50 hGLP-1R [1] [nM],EC50 hGIP-1 [2] [nM],EC50 hGlucagon-R [3] [nM],EC50 hGLP-1R [4] [nM],EC50 hGIP-1 [5] [nM],EC50 hGlucagon-R [6] [nM],EC50 hGLP-1R [7] [nM],EC50 hGIP-R [8] [nM],EC50 hGlucagon-R [9] [nM]
H[dS]QGTFTSDLSKQLDEEAARLFIEWLKAGGPSSGAPPPS-NH2 [SEQ ID NO: 34],0.0008,26,0.338,,,,,,
HXQGTFTSDLSKQKDEEAARLFIEWLKAGGPSSGAPPPS (D-Ser at 2; Lys 14 side chain K(γE-γE-x53) = (S)-4-Carboxy-4-((S)-4-carboxy-4-hexadecanoylamino-butyrylamino)-butyryl-; C-terminal amide) [SEQ ID NO: 32],0.0019,0.565,0.0055,0.0019,0.565,0.0055,,,
HXQGTFTSDLSKQKDEEAARLFIEWLXAGGPSSGAPPPS (D-Ser at 2; Lys 14 side chain K(γE-γE-x53) = (S)-4-Carboxy-4-((S)-4-carboxy-4-hexadecanoylamino-butyrylamino)-butyryl-; Aib at 27; C-terminal amide) [SEQ ID NO: 9],0.0018,3.6,0.0118,0.0018,3.6,0.0118,0.0018,3.6,0.0118
HXQGTFTSDLSKQKDEEAARLFIEWLXAGGPSSGAPPPS (D-Ser at 2; Lys 14 side chain K(γE-x70) = (S)-4-Carboxy-4-octadecanoylamino-butyryl-; Aib at 27; C-terminal amide) [SEQ ID NO: 13],0.0027,2.54,0.0068,,,,0.0027,2.54,0.0068
HXQGTFTSDLSKQKDEEAARLFIEWLXAGGPSSGAPPPS (D-Ser at 2; Lys 14 side chain K(γE-x53) = (S)-4-Carboxy-4-hexadecanoylamino-butyryl-; Aib at 27; C-terminal amide) [SEQ ID NO: 14],0.0021,5.36,0.0247,,,,0.0021,5.36,0.0247
HSQGTFTSDLSKQK([γGlu-γGlu-Palmitoyl])DEEAARLFIEWL[Aib]AGGPSSGAPPPS-NH2 (N-terminus assumed; SMILES CCCCCCCCCCCCCCCC(=O)N[C@@H](CCC(=O)N[C@@H](CCC(=O)NCCCC[C@H](NC(=O)[C@H](CCC(N)=O)NC(=O)[C@H](CCCCN)NC(=O)[C@H](CO)NC(=O)[C@H](CC(C)C)NC(=O)[C@H](CC(=O)O)NC(=O)[C@H](CO)NC(=O)[C@@H](NC(=O)[C@H](Cc1ccccc1)NC(=O)[C@@H](NC(=O)CNC(=O)[C@H](CCC(N)=O)NC(=O)[C@H](CO)NC(=O)[C@@H](N)Cc1c[nH]cn1)[C@@H](C)O)[C@@H](C)O)C(=O)N[C@@H](CC(=O)O)C(=O)N[C@@H](CCC(=O)O)C(=O)N[C@@H](CCC(=O)O)C(=O)N[C@@H](C)C(=O)N[C@@H](C)C(=O)N[C@@H](CCCNC(=N)N)C(=O)N[C@@H](CC(C)C)C(=O)N[C@@H](Cc1ccccc1)C(=O)N[C@H](C(=O)N[C@@H](CCC(=O)O)C(=O)N[C@@H](Cc1c[nH]c2ccccc12)C(=O)N[C@@H](CC(C)C)C(=O)NC(C)(C)C(=O)N[C@@H](C)C(=O)NCC(=O)NCC(=O)N1CCC[C@H]1C(=O)N[C@@H](CO)C(=O)N[C@@H](CO)C(=O)NCC(=O)N[C@@H](C)C(=O)N1CCC[C@H]1C(=O)N1CCC[C@H]1C(=O)N1CCC[C@H]1C(=O)N[C@@H](CO)C(N)=O)[C@@H](C)CC)C(=O)O)C(=O)O) [SEQ ID NO: 11],,,,0.0012,0.56,0.0051,0.0012,0.56,0.0051
H[dS]HGTFTSDLSKQK([γGlu-γGlu-Palmitoyl])EEEAARLFIEWL[Aib]AGGPSSGAPPPS-NH2 (N-terminus assumed; SMILES CCCCCCCCCCCCCCCC(=O)N[C@@H](CCC(=O)N[C@@H](CCC(=O)NCCCC[C@H](NC(=O)[C@H](CCC(N)=O)NC(=O)[C@H](CCCCN)NC(=O)[C@H](CO)NC(=O)[C@H](CC(C)C)NC(=O)[C@H](CC(=O)O)NC(=O)[C@H](CO)NC(=O)[C@@H](NC(=O)[C@H](Cc1ccccc1)NC(=O)[C@@H](NC(=O)CNC(=O)[C@H](Cc1c[nH]cn1)NC(=O)[C@@H](CO)NC(=O)[C@@H](N)Cc1c[nH]cn1)[C@@H](C)O)[C@@H](C)O)C(=O)N[C@@H](CCC(=O)O)C(=O)N[C@@H](CCC(=O)O)C(=O)N[C@@H](CCC(=O)O)C(=O)N[C@@H](C)C(=O)N[C@@H](C)C(=O)N[C@@H](CCCNC(=N)N)C(=O)N[C@@H](CC(C)C)C(=O)N[C@@H](Cc1ccccc1)C(=O)N[C@H](C(=O)N[C@@H](CCC(=O)O)C(=O)N[C@@H](Cc1c[nH]c2ccccc12)C(=O)N[C@@H](CC(C)C)C(=O)NC(C)(C)C(=O)N[C@@H](C)C(=O)NCC(=O)NCC(=O)N1CCC[C@H]1C(=O)N[C@@H](CO)C(=O)N[C@@H](CO)C(=O)NCC(=O)N[C@@H](C)C(=O)N1CCC[C@H]1C(=O)N1CCC[C@H]1C(=O)N1CCC[C@H]1C(=O)N[C@@H](CO)C(N)=O)[C@@H](C)CC)C(=O)O)C(=O)O) [SEQ ID NO: 6],,,,0.0026,1.54,0.0177,0.0026,1.54,0.0177
H[dS]QGTFTSDLSKQK([γGlu-γGlu-Palmitoyl])EEEAARLFIEWL[Aib]AGGPSSGAPPPS-NH2 (N-terminus assumed; SMILES CCCCCCCCCCCCCCCC(=O)N[C@@H](CCC(=O)N[C@@H](CCC(=O)NCCCC[C@H](NC(=O)[C@H](CCC(N)=O)NC(=O)[C@H](CCCCN)NC(=O)[C@H](CO)NC(=O)[C@H](CC(C)C)NC(=O)[C@H](CC(=O)O)NC(=O)[C@H](CO)NC(=O)[C@@H](NC(=O)[C@H](Cc1ccccc1)NC(=O)[C@@H](NC(=O)CNC(=O)[C@H](CCC(N)=O)NC(=O)[C@@H](CO)NC(=O)[C@@H](N)Cc1c[nH]cn1)[C@@H](C)O)[C@@H](C)O)C(=O)N[C@@H](CCC(=O)O)C(=O)N[C@@H](CCC(=O)O)C(=O)N[C@@H](CCC(=O)O)C(=O)N[C@@H](C)C(=O)N[C@@H](C)C(=O)N[C@@H](CCCNC(=N)N)C(=O)N[C@@H](CC(C)C)C(=O)N[C@@H](Cc1ccccc1)C(=O)N[C@H](C(=O)N[C@@H](CCC(=O)O)C(=O)N[C@@H](Cc1c[nH]c2ccccc12)C(=O)N[C@@H](CC(C)C)C(=O)NC(C)(C)C(=O)N[C@@H](C)C(=O)NCC(=O)NCC(=O)N1CCC[C@H]1C(=O)N[C@@H](CO)C(=O)N[C@@H](CO)C(=O)NCC(=O)N[C@@H](C)C(=O)N1CCC[C@H]1C(=O)N1CCC[C@H]1C(=O)N1CCC[C@H]1C(=O)N[C@@H](CO)C(N)=O)[C@@H](C)CC)C(=O)O)C(=O)O) [SEQ ID NO: 16],,,,0.0018,7.78,0.0354,0.0018,7.78,0.0354
H[dS]QGTFTSDLSKQLDEEAARLFIEWL[Aib]AGGPSSGAPPPS-NH2 (N-terminus assumed; SMILES CC[C@H](C)[C@H](NC(=O)[C@H](Cc1ccccc1)NC(=O)[C@H](CC(C)C)NC(=O)[C@H](CCCNC(=N)N)NC(=O)[C@H](C)NC(=O)[C@H](C)NC(=O)[C@H](CCC(=O)O)NC(=O)[C@H](CCC(=O)O)NC(=O)[C@H](CC(=O)O)NC(=O)[C@H](CC(C)C)NC(=O)[C@H](CCC(N)=O)NC(=O)[C@H](CCCCN)NC(=O)[C@H](CO)NC(=O)[C@H](CC(C)C)NC(=O)[C@H](CC(=O)O)NC(=O)[C@H](CO)NC(=O)[C@@H](NC(=O)[C@H](Cc1ccccc1)NC(=O)[C@@H](NC(=O)CNC(=O)[C@H](CCC(N)=O)NC(=O)[C@@H](CO)NC(=O)[C@@H](N)Cc1c[nH]cn1)[C@@H](C)O)[C@@H](C)O)C(=O)N[C@@H](CCC(=O)O)C(=O)N[C@@H](Cc1c[nH]c2ccccc12)C(=O)N[C@@H](CC(C)C)C(=O)NC(C)(C)C(=O)N[C@@H](C)C(=O)NCC(=O)NCC(=O)N1CCC[C@H]1C(=O)N[C@@H](CO)C(=O)N[C@@H](CO)C(=O)NCC(=O)N[C@@H](C)C(=O)N1CCC[C@H]1C(=O)N1CCC[C@H]1C(=O)N1CCC[C@H]1C(=O)N[C@@H](CO)C(N)=O) [SEQ ID NO: 28],0.0038,343,1.04,,,,,,
H[dS]HGTFTSDLSKQK([γGlu-γGlu-Palmitoyl])DEEAARLFIEWL[Aib]AGGPSSGAPPPS-NH2 [SEQ ID NO: 7],,,,0.0015,0.908,0.009,0.0015,0.908,0.009
